Tested on: K4 kissing-loop RNA reporter
Assay: apparent KD of K4 kissing-loop reporter; higher = weaker reporter binding
Conditions: Eterna round: R107
Description: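 RNA-MaP round R107: designed RNA switches with theophylline, tryptophan, arginine or FMN aptamers are transcribed on-chip within common flanks. They are titrated with a labelled K4 kissing-loop RNA reporter in RNA-MaP buffer (100 mM Tris pH 7.5, 80 mM KCl, 4 mM MgCl2), without ligand or with the indicated ligand. Median apparent KD per design.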

[1] = input ligand: theophylline 20 uM
[2] = input ligand: tryptophan 2.4 mM
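Also: bound reporter read as fluorescence of individual clusters on recovered sequencing chips by microscopy, with normalized cluster intensities fitted with a binding model.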

Sequence | apparent KD of K4 kissing-loop reporter (input ligand: FMN 200 uM) [nM] | apparent KD of K4 kissing-loop reporter (input ligand: arginine 13.2 mM) [nM] | apparent KD of K4 kissing-loop reporter (input ligand: none) [nM] | apparent KD of K4 kissing-loop reporter [1] [nM] | apparent KD of K4 kissing-loop reporter [2] [nM]
GCCGUAGAUGGAAGGAGCGUGCCUUUCAGUUAUAGUGAUGUUAUAACCGAGGAACGGUUGGCACAGGUAGGUCGCCAUCUACGGC | 178 | 90.2 | 109 | 112 | 121
GCCGUAGAUUGAAGGAGCGCUAGUAGUGAUGUUGCUUGCACUUCUUGUGUAAGAAGAACCUAGCAGGUAGGUCGCAAUCUACGGC | 700 | 270 | 728 | 703 | 499
GCCGUAGAUUGAAGGAGCGUGGAACUAUGGCUUGAACAGUGAUGUUGUUUAUCUAGGUAGCCGCAGGUAGGUCGCAAUCUACGGC | 263 | 250 | 270 | 239 | 229
GCCGUAGUUGGAAGGAGCGUGAAUGGCCUCUAUCCAAAGUGAUGUUUUGUUGAAGACUGUUCACAGGUAGGUCGCCAACUACGGC [#09 K4 Arginine B Same State] | 145 | 130 | 133 | 134 | 132
GCGAUUCAGUGAUGUUGGAAAUACAGGGAUACCAGCCGAGAAUAAGGCCCUUGGCAGCUUAAUAGGAAAGAACUAAGUAAGACGC [Theophylline A Same State; Euphoria Solution 2] | 574 | 569 | 877 | 616 | 402
GCGCGGCUCAGUGAUGUUGAGCCUCGGAAACGAGGACCGGUACGGCCGCCACUCGUCCGCGCAGCUGAGGCAAAAGCCUCGGCUA [Omei KL Tryp A SS B v2] | 468 | 310 | 484 | 480 | 273
GCGCGUCAUGUCAGCGGUGACACUGUCGAUACCAGCGCCGGAAGGCGCCCUUGGCAGCGACGUGCUGGAGUGAUGUUCCAGCGUG [#2 Exclusion - Theophylline A Attempt #26 (HarryS)] | 197 | 158 | 178 | 206 | 157
GCGCGUCAUGUCAGCGGUGACUUUGUCGAUACCAGCGCCGCAAGGCGCCCUUGGCAGCGACGCGCUGGAGUGAUGUUCCAGCGUG [#2 Exclusion - Theophylline A Attempt #12 (HarryS)] | 135 | 126 | 134 | 154 | 126
GCGGGCCCUGGAGGAUAUGAGUCGAGUGAUGUUCGGCGGUCCAUGCCGAUGCGGCGUUAUGCCCUUUUAGAAGGCCAGGGUCCGC [#2 Exclusion - FMN B Attempt #8 (HarryS)] | 543 | 234 | 283 | 302 | 289
GCUAAGGAGUGAUGUUCCAAGUGAUGUUAACGAGGACCGGUACGGCCGCCACUCGAUACGGCCGGAAAGUAAGAUAAACUACAGC [Same State - Tryptophan A (Freestyle 5)] | 98.6 | 72.6 | 93.2 | 89.3 | 82.8
GCUAUGGUAGGAAGGAGCGCGGACGGUAUUUGUCGAGUGAUGUUCGAUUCUUUAAUUUGAACGCAGGUAGGUCGCCUACUAUAGC [Arginine B K4 30] | 214 | 183 | 226 | 258 | 221
GCUAUGGUAGGAAGGAGCGCUUACUCGGUAAUAAGAGUGAUGUUCGAUACCGAGUAUUUAUAGCAGGUAGGUCGCCUACUAUAGC [Arginine B K4 5] | 238 | 209 | 195 | 253 | 227
GCUGAGGAGUGAUGUUCCAAGUGAUGUUAACGAGGACCGGUACGGCCGCCACUCGAUACGGCCGGACCGUAAGAUAAACUACAGC [Same State - Tryptophan A (Freestyle 7)] | 316 | 281 | 288 | 409 | 315
GGAAAUUGAUCAACGCAGUGAUGUUGCGAUACCAGACACAAAGCCGUCCCUUGGCAGCGCGGGACAUUAAUGGAUCUAUGGGUUC [theeternabot_exclusion_KL_Theo_A_26] | 68.5 | 113 | 68.2 | 119 | 66.8
GGACCACCAGUGAUGUUGGAGAUAAACUCCAAGGAUAUGACGAAAGUCAGAAGGUGGUAAUAAGACGUCAAAGACGUCAGGUCCA [FmnA 20 #SwitchBubble #K4Early] | 372 | 116 | 187 | 209 | 178
GGAGUUACCUGGGAUACCAGUCGGAGUCCCAGAGCUCAGAGUGAUGUUCUGGGAUGUUUCGGCCCUUGGCAGCUCUGGGACUCCC [#2 Exclusion - Theophylline B Attempt #12 (HarryS)] | 535 | 509 | 637 | 599 | 466
GGAGUUACCUGGGAUACCAGUCGGAGUCUCAGAGCUCGGAGUGAUGUUCUGGGAUGUUUCGGCCCUUGGCAGCUCUGGGACUCCA [#2 Exclusion - Theophylline B Attempt #16 (HarryS)] | 924 | 627 | 863 | 843 | 707
GGAUAGGACAGAGGAUAUGGACAGUCUACAAAGUAGGCUGAAAAUCCUUGAAUGGAAGUGAUGUUUCCAGAAGGCUGUCCUAUCG [FmnBX 20 - #SwitchBubble #StaticStem #Palindromic] | 558 | 145 | 165 | 164 | 150
GGAUAGGACAGAGGAUAUGGUAGCUAGGCAAGAAUAACUUGUCUAGCAUCCAUGAGGAGUGAUGUUCCAGAAGGCUGUCCUAUCG [FmnBX 5 - #SwitchBubble #StaticStem] | 235 | 145 | 211 | 150 | 165
GGAUAGGAGAGAGGAUAUGGGCUAGGCAAGAAUAACUUGUCUAGCAAAUCCAUGAGGAGUGAUGUUCCAGAAGGCUCUCCUAUCG [FmnBX 1 G9+C77] | 996 | 148 | 153 | 143 | 139
GGAUAGGAUAGAGGAUAUGGACUAGGCAAGAAUAACUUGUCUAGUAAAUCCAUGAGGAGUGAUGUUCCAGAAGGCUGUCCUAUCG [MatMod 3 - Jieux - Exclusion - FMN B] | 514 | 200 | 226 | 224 | 185

Sequence | apparent KD of K4 kissing-loop reporter (input ligand: FMN 200 uM) [nM] | apparent KD of K4 kissing-loop reporter (input ligand: arginine 13.2 mM) [nM] | apparent KD of K4 kissing-loop reporter (input ligand: none) [nM] | apparent KD of K4 kissing-loop reporter [1] [nM] | apparent KD of K4 kissing-loop reporter [2] [nM]
GGAUAGGAUAGAGGAUAUGGUUUAUGCAGAAAUAACUUAUUGUGUAAAUCCAUAGGGAGUGAUGUUCCAGAAGGCUGUCCUAUCG [MatMod 15 - Jieux - Exclusion - FMN B] | 316 | 187 | 209 | 241 | 180
GGAUCCACCAGUGAUGUUGGAGAAAACUCCAAGGAUAUGACGAAAGUCAGAAGGUGGUAGACUGGGCAAAGUCCGGUCGGAUCCA [FmnA10 G66] | 3150 | 68.5 | 144 | 49.9 | 355
GGAUCCACCAGUGAUGUUGGAGAAAACUCCGAGGAUAUGACGAAAGUCAGAAGGUGGUAGACUGGACAAAGUCCGGUCGGAUCCA [FmnA 24 #SwitchBubble #K4Early] | 790 | 83.3 | 288 | 162 | 101
GGCACGGGCUCGGCCGCCACUCCCGCGGGUCGAAAGGUCCGCUACUGAGUGAUGUUCGGUUGGAGGAGGACCGGGAGCCCGUGCC [#2 Exclusion - Tryptophan B Attempt #23 (HarryS)] | 130 | 91.6 | 108 | 99.9 | 98.4
GGCACUUUUGGUAGGAACCAUCUACCUCUAUAGGAUAUGCCGAAAGGCAGAAGGAUAGACCUACAGAGUGAUGUUCUGCGUGCCU | 573 | 150 | 330 | 203 | 211
GGCAGUGAUGUUGCCUAAGCAACGCAUGCGGAGGAUAUUCGUUCGGGAAGAAGGCCGCAGCGUUCUCUCGCGAGUGAUGUUCGCA [Same State FMN A GF 22] | 158 | 160 | 173 | 166 | 147
GGCAUCCAUGGACCUAGUGAUGUUAGGUACCGAGGACCGGUACGGCCGCCACUCGGCCAUGGAUGCCGCAAUCGGAAACGAUUGC | 406 | 243 | 408 | 460 | 345
GGCCAAAGAGAGUGAUGUUCUCAAUAUGAAGGAGCGCCCGAAAGGGCAGGUAGGUCGCAUAACGGCCACCUACGAAAAGUAGGAA [#SwitchBubble 4 #K4Early] | 91.3 | 96.6 | 94.5 | 109 | 96.5
GGCCACGGGCGAGGAUAUGGGCAUGAUUCAUCCUGGAGUGAUGUUCCAGGUCCUACGUUUCUAGCACCAGAAGGCGUUUGUUGCU [Enistein] | 131 | 196 | 215 | 180 | 165
GGCGGCCGCGCGCAAGCGCGGCCGGCCGAUACCAGCGCGACGGCGCGCCCUUGGCAGCGGCGCCGAGUGAUGUUCGGCCUGCCGU [#2 Same State - Theophylline A Attempt #15 (HarryS)] | 151 | 81.1 | 146 | 94.2 | 96.4
GGGAAUUACGGAGGAUAUGCACUGAGGAGGAGAAUAUAGUGAUGUUAUAUAAGAGGAAGGAGAAGAGUAGAAGGCCGUGGAAAGG [SSFMNB.D] | 226 | 161 | 203 | 217 | 141
GGGAGUAGUGCGGCCGCCACUGAGAAAGAAGAAGAAUAUAGUGAUGUUAUAUAGGAAUUAAAGAACAGGACCGGGCAUUAGAUUU [SSTRyptB.O] | 210 | 208 | 219 | 163 | 143
GGGUGGCAGGCGGCCGCCACUCUGAGCAGCCAGUGAGUGAUGUUCGUGGCGGAAGAAUGUUCGUAGAGGACCGGGUUUGUUGUUC [Same State Tryptophan B GF 22] | 472 | 245 | 297 | 432 | 337
GGUAGCAUGGCGGCCGCCACUCUUCAUUAGUGAUGUUAAUGCCGAGUGCGCUAACUCCAACUGGAGAGGACCGGGCCAUGCUACC | 182 | 122 | 288 | 440 | 76
GGUAGCAUGGCGGCCGCCACUCUUCAUUAGUGAUGUUAAUGCCGAGUGCGCUAACUCCUACGGGAGAGGACCGGGCCAUGCUACC | 1220 | 4.43 | 25.8 | 919 | 14.6
GGUAGCAUGGCGGCCGCCACUUCAAGUGGAGUGAUGUUCCACGGCAUCGCGAAAGCGAUGCCUGGAAGGACCGGGCCAUGCUACC | 738 | 739 | 720 | 761 | 284
GGUAGCAUGGCGGCCGCCACUUCAUAUGGAGUGAUGUUCCAGCAUCUUAUAAGACUGAGGUGAGGAAGGACCGGGCCAUGCUACC | 635 | 561 | 577 | 615 | 189
GGUAUGGAAGCAACAUCACAAGCCGUACCACGAGGACCGGUACGGCCGCCACUCGAUAACUUGCAGUGAUGUUGCAAGUAAGAAU [(T)''-(K)'-(T)'-(T1)-(T2)-(K1)-(K2)_Design6] | 147 | 80.5 | 133 | 117 | 68.6
GGUGACAGCCAGGAGUGAUGUAUAGAAUAGCGAGGACCGGUACGGCCGCCACUCGUGAAGAGAAAGGAGUGAUGUUCCGUAAUGG [Kazoo C2] | 224 | 178 | 193 | 308 | 57
GGUGCCGGGCAAGGAUAUUAGUCGAGUGAUGUUCGGCGGUCCAAGUCGUUGCGGCGUUAAACCCUUUGAGAAGGUGCCCGGUGCC [#2 Exclusion - FMN B Attempt #1 (HarryS)] | 198 | 144 | 193 | 195 | 163
GGUGUUGUUUGUGCUGUUUUCCUCGUUCCUCGAGGACCGGUACGGCCGCCACUCGAGUGAUGUUUGGGUAGCGAUCCUUGUUAGU [Bdazzled - #7 Exc. Tryptophan A] | 336 | 226 | 341 | 264 | 441
